We go through one molecule from doi:10.1101/2020.11.22.393603 (bioRxiv, 2020).

Experiment [1] concerns the target T1, full-length recombinant GLK1 (Arabidopsis thaliana, UniProt Q9SIV3 1-420).
T1 sequence (looked up): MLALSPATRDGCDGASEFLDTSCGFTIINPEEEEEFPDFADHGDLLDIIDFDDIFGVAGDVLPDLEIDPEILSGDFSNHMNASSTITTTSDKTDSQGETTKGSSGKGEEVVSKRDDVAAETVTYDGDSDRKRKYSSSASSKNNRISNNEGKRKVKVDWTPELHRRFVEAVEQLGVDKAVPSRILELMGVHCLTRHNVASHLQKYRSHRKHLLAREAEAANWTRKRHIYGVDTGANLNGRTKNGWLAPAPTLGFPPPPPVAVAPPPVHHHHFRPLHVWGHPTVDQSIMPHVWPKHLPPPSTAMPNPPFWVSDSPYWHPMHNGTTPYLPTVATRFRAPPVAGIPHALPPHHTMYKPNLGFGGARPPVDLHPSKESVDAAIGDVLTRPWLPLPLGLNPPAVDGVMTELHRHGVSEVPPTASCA
Briefly: SEC. Background: Size exclusion chromatography separates by hydrodynamic size, large species first.

Experiment [2] addresses T2, full-length recombinant GLK2 (Arabidopsis thaliana, UniProt Q9FFH0 1-386).
T2 sequence (looked up): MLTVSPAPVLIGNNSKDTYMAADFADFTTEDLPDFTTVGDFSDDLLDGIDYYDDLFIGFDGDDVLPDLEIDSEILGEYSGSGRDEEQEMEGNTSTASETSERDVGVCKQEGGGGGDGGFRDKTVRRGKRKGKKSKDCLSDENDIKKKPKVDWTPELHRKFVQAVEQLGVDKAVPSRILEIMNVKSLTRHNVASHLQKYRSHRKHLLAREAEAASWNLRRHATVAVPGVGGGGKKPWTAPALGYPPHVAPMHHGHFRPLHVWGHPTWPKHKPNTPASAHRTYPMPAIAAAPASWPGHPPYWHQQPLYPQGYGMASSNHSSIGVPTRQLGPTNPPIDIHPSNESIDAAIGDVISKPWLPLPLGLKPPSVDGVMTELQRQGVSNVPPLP
Briefly: SEC.

B1: full-length recombinant LSD1 (natural protein, Arabidopsis thaliana, UniProt P94077 1-189, looked up)
chain: MKVADMQDQLVCHGCRNLLMYPRGASNVRCALCNTINMVPPPPPPHDMAHIICGGCRTMLMYTRGASSVRCSCCQTTNLVPAHSNQVAHAPSSQVAQINCGHCRTTLMYPYGASSVKCAVCQFVTNVNMSNGRVPLPTNRPNGTACPPSTSTSTPPSQTQTVVVENPMSVDESGKLVSNVVVGVTTDKK
With B1, the binding result in experiment [1] and in experiment [2] was “binds” in each case.
